Reference: paper PMC10674394 (Pharmaceuticals, 2023)

Biological target: C-192 ( | human, UniProt P0CG48 1-76; P0CG48 1-76, L73P (from the printed letters 55-TLSDYNIQKESTLHLVLRPR-74), Lys63 of the acceptor ubiquitin in an isopeptide bond with the C-terminal glycine of the donor ubiquitin (Lys63-linked diubiquitin) | C-terminal glycine of the donor ubiquitin in an isopeptide bond …)
Test: SPR; Biacore T200; C-192 immobilised on a CM5 chip by amine coupling (5 ug/mL in 10 mM sodium acetate pH 5.5, 400 RU); GLP-1R, GCGR (3.906-1000 nM) or KLB (0.195-200 nM) injected at 50 uL/min for 4 min, dissociation 10 min; 1:1 kinetic binding model
Conditions: both partners purified

B1: GCGR (receptor)
chain: AQVMDFLFEKWKLYGDQCHHNLSLLPPPTELVCNRTFDKYSCWPDTPANTTANISCPWYLPWHHKVQHRFVFKRCGPDGQWVRGPRGQPWRDASQCQMDGEEIEVQKEVAK
Kd: 19.4 nM
kon: 26300 M⁻¹ s⁻¹
